# Reference: PMC13360575
# Biological target: chicken IgY (chicken)
# Assay: BLI; Octet, SAX (streptavidin) biosensors; recombinant Fabs against IgY; KD from a kinetic 1:1 model, global fit over multiple concentrations (partial fits averaged for 3 low-affinity Fabs)
Kd,koff,kon,Binder
26 nM,0.00226 s⁻¹,86700 M⁻¹ s⁻¹,"clone 2.1 Fab, unmutated (Fab, V domains shown) VH: EVQLQESGPSLVKPSQTLSLTCSVTGDSITSGYWNWIRKFPGNKLEYMGYISYSGSTYYNPSLKSRISITRDTSKNQYYLQLNSVTTEDTATYYCARDFDVWGAGTTVTVSS VL: DIVMTQSQKFMSTSVGDRVSVTCKASQNVGTNVAWYQQKPGQSPKALIYSASYRYSGVPDRFTGSGSGTDFTLTISNVQSEDLAEYFCQQYNSYPLTFGSGTKLEIK"
0.549 nM,0.000119 s⁻¹,216000 M⁻¹ s⁻¹,"clone 2.1 Fab TA_13 (Fab, V domains shown) VH: EVQLQESGPSLVKPSQTLSLTCSVTGDSITSGYWNWIRKFPGNKLEYMGYISYSGSTYYNPSLKSRISITRDTSKNQYYLQLNSVTTEDTATYYCARDFDVWGAGTTVTVSS VL: DIVMTQSQKFMSTSVGDRVSVTCKASQNVGTNVGWFQQKPGQSPKALIYSASYRYSGVPDRFTGSGSGTDFTLTISNVQSEDLAEYFCHQYYSYPLTFGSGTKLEIK"
14.9 nM,0.00124 s⁻¹,83500 M⁻¹ s⁻¹,"clone 2.1 Fab TA_22 (Fab, V domains shown) VH: EVQLQESGPSLVKPSQTLSLTCSVTGDSITSGYWNWIRKFPGNKLEYMGYISYSGSTYYNPSLKSRISITRDTSKNQYYLQLNSVTTEDTATYYCARDFDVWGAGTTVTVSS VL: DIVMTQSQKFMSTSVGDRVSVTCKASQNVGTNVAWYQQKPGQSPKALIYSASYRYSGVPDRFTGSGSGTDFTLTISNVQSEDLAEYFCQQYSSYPLTFGSGTKLEIK"
0.261 nM,8.66e-05 s⁻¹,331000 M⁻¹ s⁻¹,"clone 2.1 Fab TA_19 (Fab, V domains shown) VH: EVQLQESGPSLVKPSQTLSLTCSVTGDSITSGYWNWIRKFPGNKLEYMGYISYSGSTYYNPSLKSRISITRDTSKNQYYLQLNSVTTEDTATYYCARDFDVWGAGTTVTVSS VL: DIVMTQSQKFMSTSVGDRVSVTCKASQNVGTNVGWFQQKPGQSPKSLIYSASYRYSGVPDRFTGSGSGTDFTLTISNVQSEDLAEYFCHQYYSYPLTFGSGTKLEIK"
7.72 nM,0.000911 s⁻¹,118000 M⁻¹ s⁻¹,"clone 2.1 Fab TA_24 (Fab, V domains shown) VH: EVQLQESGPSLVKPSQTLSLTCSVTGDSITSGYWNWIRKFPGNKLEYMGYISYSGSTYYNPSLKSRISITRDTSKNQYYLQLNSVTTEDTATYYCARDFDVWGAGTTVTVSS VL: DIVMTQSQKFMSTSVGDRVSVTCKASQNVGTNVAWYQQKPGQSPKALIYSASYRYSGVPDRFTGSGSGTDFTLTISNVQSEDLAEYFCQQYYSYPLTFGSGTKLEIK"
3.2 nM,0.000412 s⁻¹,129000 M⁻¹ s⁻¹,"clone 2.1 Fab TA_25 (Fab, V domains shown) VH: EVQLQESGPSLVKPSQTLSLTCSVTGDSITSGYWNWIRKFPGNKLEYMGYISYSGSTYYNPSLKSRISITRDTSKNQYYLQLNSVTTEDTATYYCARDFDVWGAGTTVTVSS VL: DIVMTQSQKFMSTSVGDRVSVTCKASQNVGTNVAWYQQKPGQSPKALIYSASYRYSGVPDRFTGSGSGTDFTLTISNVQSEDLAEYFCHQYYSYPLTFGSGTKLEIK"
6.25 nM,0.00139 s⁻¹,223000 M⁻¹ s⁻¹,"clone 2.1 Fab TA_14 (Fab, V domains shown) VH: EVQLQESGPSLVKPSQTLSLTCSVTGDSITSGYWNWIRKFPGNKLEYMGYISYSGSTYYNPSLKSRISITRDTSKNQYYLQLNSVTTEDTATYYCARDFDVWGAGTTVTVSS VL: DIVMTQSQKFMSTSVGDRVSVTCKASQNVGTNVAWYQQKPGQSPKSLIYSASYRYSGVPDRFTGSGSGTDFTLTISNVQSEDLAEYFCQQYNSYPLTFGSGTKLEIK"
14.4 nM,0.00168 s⁻¹,116000 M⁻¹ s⁻¹,"clone 2.1 Fab TA_15 (Fab, V domains shown) VH: EVQLQESGPSLVKPSQTLSLTCSVTGDSITSGYWNWIRKFPGNKLEYMGYISYSGSTYYNPSLKSRISITRDTSKNQYYLQLNSVTTEDTATYYCARDFDVWGAGTTVTVSS VL: DIVMTQSQKFMSTSVGDRVSVTCKASQNVGTNVAWYQQKPGQSPKALIFSASYRYSGVPDRFTGSGSGTDFTLTISNVQSEDLAEYFCQQYNSYPLTFGSGTKLEIK"
–,6.34e-05 s⁻¹,1.03e+06 M⁻¹ s⁻¹,"2.1^hi Fab, high-affinity variant of clone 2.1 (Fab, V domains shown) VH: EVQLQESGPSLVKPSQTLSLTCSVTGASITSGYWNWIRKFPGNRLEYMGYISYSGGTYYNPSLKSRISITRDTSKNQYYLQLNSVTTEDTATYYCARDFDVWGAGTTVTVSS VL: DIVMTQSQKFMSTSVGDRVSVTCKASQNVGTNVGWFQQKPGQSPKSLIYSASYRYSGVPDRFTGSGSGTDFTLTISNVQSEDLAEYFCHQYYSYPLTFGSGTKLEIK"
22.3 nM,0.0034 s⁻¹,152000 M⁻¹ s⁻¹,"clone 2.1 Fab TA_10 (Fab, V domains shown) VH: EVQLQESGPSLVKPSQTLSLTCSVTGDSITSGYWNWIRRFPGNKLEYMGYISYSGSTYYNPSLKSRISITRDTSKNQYYLQLNSVTTEDTATYYCARDFDVWGAGTTVTVSS VL: DIVMTQSQKFMSTSVGDRVSVTCKASQNVGTNVAWYQQKPGQSPKALIYSASYRYSGVPDRFTGSGSGTDFTLTISNVQSEDLAEYFCQQYNSYPLTFGSGTKLEIK"
1.49 nM,0.000329 s⁻¹,221000 M⁻¹ s⁻¹,"clone 2.1 Fab TA_16 (Fab, V domains shown) VH: EVQLQESGPSLVKPSQTLSLTCSVTGDSITSGYWNWIRKFPGNKLEYMGYISYSGSTYYNPSLKSRISITRDTSKNQYYLQLNSVTTEDTATYYCARDFDVWGAGTTVTVSS VL: DIVMTQSQKFMSTSVGDRVSVTCKASQNVGTNVGWYQQKPGQSPKSLIFSASYRYSGVPDRFTGSGSGTDFTLTISNVQSEDLAEYFCQQYNSYPLTFGSGTKLEIK"
22 nM,0.00309 s⁻¹,140000 M⁻¹ s⁻¹,"clone 2.1 Fab TA_28 (Fab, V domains shown) VH: EVQLQESGPSLVKPSQTLSLTCSVTGDSITSGYWNWIRKFPGNKLEYMGYISYSGGTYYNPSLKSRISITRDTSKNQYYLQLNSVTTEDTATYYCARDFDVWGAGTTVTVSS VL: DIVMTQSQKFMSTSVGDRVSVTCKASQNVGTNVAWYQQKPGQSPKALIYSASYRYSGVPDRFTGSGSGTDFTLTISNVQSEDLAEYFCQQYNSYPLTFGSGTKLEIK"

# Second part, the binder before the results:
Binder,Kd,koff,kon
"clone 2.1 Fab CB_01 (clonal burst) (Fab, V domains shown) VH: EVQLQESGPSLVKPSQTLSLTCSVTGDSITSGYWNWIRKFPGNKLEYMGYISYSGSTYYNPSLKSRISFTRDTSKNQYYLQLNSVTTEDTATYYCARDFDVWGAGTTVTVSS VL: DIVMTQSQKFMSTSVGDRVSVTCKASQNVGTNVAWSQQKPGQSPKALIYSASYRYSGVPDRFTGSGSGTDFTLTISNVQSEDLAEYFCQQYKSYPLTFGSGTKLEIK",3.77 nM,0.000398 s⁻¹,105000 M⁻¹ s⁻¹
"clone 2.1 Fab TA_27 (Fab, V domains shown) VH: EVQLQESGPSLVKPSQTLSLTCSVTGDSITSGYWNWIRKFPGNRLEYMGYISYSGSTYYNPSLKSRISITRDTSKNQYYLQLNSVTTEDTATYYCARDFDVWGAGTTVTVSS VL: DIVMTQSQKFMSTSVGDRVSVTCKASQNVGTNVGWFQQKPGQSPKSLIYSASYRYSGVPDRFTGSGSGTDFTLTISNVQSEDLAEYFCQQYSSYPLTFGSGTKLEIK",0.28 nM,0.000203 s⁻¹,724000 M⁻¹ s⁻¹
"clone 2.1 Fab TA_5 (Fab, V domains shown) VH: EVQLQESGPSLVKPSQTLSLTCSVTGASITSGYWNWIRKFPGNKLEYMGYISYSGSTYYNPSLKSRISITRDTSKNQYYLQLNSVTTEDTATYYCARDFDVWGAGTTVTVSS VL: DIVMTQSQKFMSTSVGDRVSVTCKASQNVGTNVAWYQQKPGQSPKALIYSASYRYSGVPDRFTGSGSGTDFTLTISNVQSEDLAEYFCQQYNSYPLTFGSGTKLEIK",3.81 nM,0.000858 s⁻¹,225000 M⁻¹ s⁻¹
"clone 2.1 Fab TA_11 (Fab, V domains shown) VH: EVQLQESGPSLVKPSQTLSLTCSVTGDSITSGYWNWIRKFPGNRLEYMGYISYSGSTYYNPSLKSRISITRDTSKNQYYLQLNSVTTEDTATYYCARDFDVWGAGTTVTVSS VL: DIVMTQSQKFMSTSVGDRVSVTCKASQNVGTNVAWYQQKPGQSPKALIYSASYRYSGVPDRFTGSGSGTDFTLTISNVQSEDLAEYFCQQYNSYPLTFGSGTKLEIK",21.6 nM,0.00331 s⁻¹,153000 M⁻¹ s⁻¹
"clone 2.1 Fab TA_26 (Fab, V domains shown) VH: EVQLQESGPSLVKPSQTLSLTCSVTGDSITSGYWNWIRKFPGNKLEYMGYISYSGSTYYNPSLKSRISITRDTSKNQYYLQLNSVTTEDTATYYCARDFDVWGAGTTVTVSS VL: DIVMTQSQKFMSTSVGDRVSVTCKASQNVGTNVAWYQQKPGQSPKALIYSASYRYSGVPDRFTGSGSGTDFTLTISNVQSEDLAEYFCQQYDSYPLTFGSGTKLEIK",58.5 nM,0.00803 s⁻¹,137000 M⁻¹ s⁻¹
"clone 2.1 Fab TA_23 (Fab, V domains shown) VH: EVQLQESGPSLVKPSQTLSLTCSVTGDSITSGYWNWIRKFPGNKLEYMGYISYSGSTYYNPSLKSRISITRDTSKNQYYLQLNSVTTEDTATYYCARDFDVWGAGTTVTVSS VL: DIVMTQSQKFMSTSVGDRVSVTCKASQNVGTNVAWYQQKPGQSPKALIYSASYRYSGVPDRFTGSGSGTDFTLTISNVQSEDLAEYFCHQYNSYPLTFGSGTKLEIK",13.3 nM,0.00133 s⁻¹,100000 M⁻¹ s⁻¹
"clone 2.1 Fab CB_02 (clonal burst) (Fab, V domains shown) VH: EVQLQESGPSLVKPSQTLSLTCSVTGDSITSGYWNWIRKFPGNKLEYMGYISYSGSTYYNPSLKSRISITRDTSKNQYYLQLNSVTTEDTATYYCGRDFDVWGAGTTVTVSS VL: DIVMTQSQKFMSTSVGDRVSVTCKASQNVGTNVGWYQQKPGQSPKALIYSASYRYSGVPDRFTGSGSGTDFTLTISNVQSEDLAEYFCQQYNSYPLTFGSGTKLEIK",0.507 nM,0.000123 s⁻¹,244000 M⁻¹ s⁻¹
"clone 2.1 Fab TA_12 (Fab, V domains shown) VH: EVQLQESGPSLVKPSQTLSLTCSVTGDSITSGYWNWIRKFPGNKLEYMGYISYSGSTYYNPSLKSRISITRDTSKNQYYLQLNSVTTEDTATYYCARDFDVWGAGTTVTVSS VL: DIVMTQSQKFMSTSVGDRVSVTCKASQNVGTNVAWFQQKPGQSPKALIYSASYRYSGVPDRFTGSGSGTDFTLTISNVQSEDLAEYFCQQYNSYPLTFGSGTKLEIK",22.7 nM,0.00408 s⁻¹,180000 M⁻¹ s⁻¹
